{"source": "patent US20120165340", "target": "FLAG-HA-PTEN (UniProt P60484)", "sequence (P60484 whole entry)": "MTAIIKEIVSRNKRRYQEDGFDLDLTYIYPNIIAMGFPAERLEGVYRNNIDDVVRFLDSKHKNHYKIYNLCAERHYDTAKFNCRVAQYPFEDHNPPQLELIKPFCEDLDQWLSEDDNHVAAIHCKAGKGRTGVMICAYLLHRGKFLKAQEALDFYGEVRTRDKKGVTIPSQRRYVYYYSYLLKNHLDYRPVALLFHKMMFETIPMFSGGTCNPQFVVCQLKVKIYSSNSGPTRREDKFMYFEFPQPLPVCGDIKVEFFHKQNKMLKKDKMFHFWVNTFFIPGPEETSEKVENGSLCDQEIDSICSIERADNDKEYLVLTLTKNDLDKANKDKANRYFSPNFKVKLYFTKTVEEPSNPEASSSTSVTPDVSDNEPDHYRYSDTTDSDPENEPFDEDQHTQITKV"}
{"substance": "c-src", "values": [{"measurement": "tyrosine phosphorylation of PTEN (Western blot with 4G10 and anti-pY240, FIG. 15)", "result": "although src and lyn both phosphorylate PTEN on tyrosine, the phosphorylation of Y240 is much greater in the presence of lyn than when src is expressed with PTEN"}, {"measurement": "tyrosine phosphorylation sites on PTEN identified by mass spectrometry", "result": "We identified four sites of tyrosine phosphorylation in the PTEN phosphatase domain (Y46, Y68, Y155 and Y174) and two sites in the PTEN C2 domain (Y240 and Y315)"}]}
